Legend:
[1] = target: T1, Flag-HER3 (D297Y) (human, UniProt P21860 1-1342); experiment: flow cytometry on HER2-overexpressing and HER3-stably expressing MDA-MB-231 cells, 0.1 to 100 nM
T1 construct: The entry already carries the mutation; Stably expressed in MDA-MB-231 cells, with or without HER2 overexpression; also called mutant-type HER3 (D297Y)
Procedure: (§1) Wild-type and various kinds of mutant-type HER3-introduced MDA-MB-231 cells were cultured with RPMI1640 medium (available from Thermo Fisher […] K.K.) containing 10% FBS (available from Hyclone Laboratories, Inc). The cells were separated from the culture plate with TrypLE® Express Enzyme (available from Thermo Fisher […] K.K.), to measure the number of living cells by trypan blue treatment. The same number of living cells were added to a 96-well U-bottom plate, then the cells were precipitated by centrifugation, and the medium was replaced with Stain Buffer (available from Becton, Dickinson and Company). […] The cells were allowed to react on ice for 60 minutes and then washed with Stain Buffer. Further, 100 μL of Stain Buffer or a secondary antibody (Goat anti-Human IgG (H+L) Cross-Adsorbed Secondary Antibody, Alexa Fluor647, Thermo Fisher […] K.K., #A-21445) diluted to 10 μg/mL was added thereto, and the cells were suspended therein. After the cells were allowed to react in the dark on ice for 60 minutes and then washed with Stain Buffer. After the cells were suspended in 100 μL of Stain Buffer, an equal amount of 4% paraformaldehyde phosphate buffer (Wako Pure Chemical Industries, Ltd.) was added thereto, and the mixture was reacted in the dark on ice for 20 minutes. After washing with a Stain Buffer, fluorescence signals were measured using Attune NxT Flow Cytometer (available from Thermo Fisher […] K.K.), and the measurement results were analyzed using FlowJo software (Version 10.5.0, available from Becton, Dickinson and Company).

[2] = target: T2, Flag-HER3 (A232V) (human, UniProt P21860 1-1342); experiment: as above
T2 construct: The entry already carries the mutation; Stably expressed in MDA-MB-231 cells, with or without HER2 overexpression; also called mutant-type HER3 (A232V)
Procedure: as §1

[3] = target: T3, Flag-HER3 (V104L) (human, UniProt P21860 1-1342); experiment: as above
T3 construct: The entry already carries the mutation; Stably expressed in MDA-MB-231 cells, with or without HER2 overexpression; also called mutant-type HER3 (V104L)
Procedure: as §1

[4] = target: T4, Flag-HER3 (V104M) (human, UniProt P21860 1-1342); experiment: as above
T4 construct: The entry already carries the mutation; Stably expressed in MDA-MB-231 cells, with or without HER2 overexpression; also called mutant-type HER3 (V104M)
Procedure: as §1

[5] = target: T5, Flag-HER3 (G325R) (human, UniProt P21860 1-1342); experiment: as above
T5 construct: The entry already carries the mutation; Stably expressed in MDA-MB-231 cells, with or without HER2 overexpression; also called mutant-type HER3 (G325R)
Procedure: as §1

[6] = target: T6, Flag-HER3 (T355I) (human, UniProt P21860 1-1342); experiment: as above
T6 construct: The entry already carries the mutation; Stably expressed in MDA-MB-231 cells, with or without HER2 overexpression; also called mutant-type HER3 (T355I)
Procedure: as §1

[7] = target: T7, Flag-HER3 (G284R) (human, UniProt P21860 1-1342); experiment: as above
T7 construct: The entry already carries the mutation; Stably expressed in MDA-MB-231 cells, with or without HER2 overexpression; also called mutant-type HER3 (G284R)
Procedure: as §1

[8] = target: T8, Flag-HER3 (P262H) (human, UniProt P21860 1-1342); experiment: as above
T8 construct: The entry already carries the mutation; Stably expressed in MDA-MB-231 cells, with or without HER2 overexpression; also called mutant-type HER3 (P262H)
Procedure: as §1

[9] = target: T9, Flag-HER3 (Q809R) (human, UniProt P21860 1-1342); experiment: flow cytometry on HER2-overexpressing and HER3-stably expressing MDA-MB-231 cells, same method as Example 3
T9 construct: The entry already carries the mutation; Stably expressed in HER2-overexpressing MDA-MB-231 cells; also called mutant-type HER3 (Q809R)
Procedure: as §1, with “After the cells were suspended in 100 μL of Stain Buffer, an equal amount of 4% paraformaldehyde phosphate buffer (Wako Pure Chemical Industries, Ltd.) was added thereto, and the mixture was reacted in the dark on ice for 20 minutes.” left out

[10] = target: T10, Flag-HER3 (WT) (human, UniProt P21860 1-1342); experiment: flow cytometry on HER3-stably expressing MDA-MB-231 cells without HER2 overexpression, 0.1 to 100 nM
T10 construct: Flag-tagged full-length HER3 stably expressed in MDA-MB-231 cells, with or without HER2 overexpression; also called wild-type HER3
Procedure: as §1

[11] = target: T11, Flag-HER3 (E928G) (human, UniProt P21860 1-1342); experiment: as above
T11 construct: The entry already carries the mutation; Stably expressed in MDA-MB-231 cells, with or without HER2 overexpression; also called mutant-type HER3 (E928G)
Procedure: as §1

[12] = target: T12, Flag-HER3 (S846I) (human, UniProt P21860 1-1342); experiment: as above
T12 construct: The entry already carries the mutation; Stably expressed in MDA-MB-231 cells, with or without HER2 overexpression; also called mutant-type HER3 (S846I)
Procedure: as §1

binding result [1]: binds
binding result [2]: binds
binding result [3]: binds
binding result [4]: binds
binding result [5]: binds
binding result [6]: binds
binding result [7]: binds
binding result [8]: binds
binding result [9]: binds
binding result [10]: binds
binding result [11]: binds
binding result [12]: binds
B1: HER3-ADC (1) (antibody, human IgG1, kappa, V domains shown)
VH: QVQLQQWGAGLLKPSETLSLTCAVYGGSFSGYYWSWIRQPPGKGLEWIGEINHSGSTNYNPSLKSRVTISVETSKNQFSLKLSSVTAADTAVYYCARDKWTWYFDLWGRGTLVTVSS
VL: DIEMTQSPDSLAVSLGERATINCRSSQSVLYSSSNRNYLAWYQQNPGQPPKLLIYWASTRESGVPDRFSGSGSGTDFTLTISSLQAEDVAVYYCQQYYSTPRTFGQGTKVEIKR
modifications: drug-linker (exatecan derivative) conjugated via a thioether bond to cysteine thiols formed at interchain disulfide sites; drug-linker (exatecan derivative) conjugated via a thioether bond to cysteine thiols formed at interchain disulfide sites; average number of conjugated drug molecules per antibody molecule in the range of 7 to 8
notes: also called anti-HER3 antibody-drug conjugate; conjugate of HER3-Ab (1)

Reference: US20220072144A1 (published 2022)
